The values that follow come from article PMC10272187, “PPP2R1A regulates migration persistence through the NHSL1-containing WAVE Shell Complex” (Nature Communications, 2023).

The test concerns the target T1, WAVE1 (1-230) (UniProt Q92558 1-230).
T1 construct: WAVE1 residues 1-230; also called WAVE1 N-terminus; source: E.coli, purified
T1 sequence (looked up): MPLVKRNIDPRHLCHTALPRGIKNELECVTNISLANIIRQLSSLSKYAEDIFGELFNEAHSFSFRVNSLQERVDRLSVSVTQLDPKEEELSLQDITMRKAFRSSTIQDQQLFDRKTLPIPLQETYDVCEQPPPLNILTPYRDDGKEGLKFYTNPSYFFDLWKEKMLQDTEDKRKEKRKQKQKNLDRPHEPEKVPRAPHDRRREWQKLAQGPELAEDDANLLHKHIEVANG
Description: SEC; Recombinant subunits expressed individually; CYFIP1-NCKAP1 dimer and BRK1-ABI1-NHSL1 (or WAVE1) trimer reconstituted; pentamers purified on SOURCE 15Q and Superdex 200 (24 ml column). To be noted: both partners purified. On the technique in general: SEC sorts molecules by how far they enter the pores of the column.

B1: BRK1 (recombinant) (natural protein, UniProt Q8WUW1 1-75, looked up)
chain: MAGQEDPVQREIHQDWANREYIEIITSSIKKIADFLNSFDMSCRSRLATLNEKLTALERRIEYIEARVTKGETLT
notes: BRK1; source: E.coli, purified
For the molecule B1, the binding result is given as “binds”.
